Experimental data as given in publication PMC11185801 (bioRxiv, 2024).

Target: the molecule itself
Experiment: cryo-EM structure

B1: human Kir7.1 R162Q mutant (natural protein)
chain: MDSSNCKVIAPLLSQRYRRMVTKDGHSTLQMDGAQRGLAYLRDAWGILMDMRWRWMMLVFSASFVVHWLVFAVLWYVLAEMNGDLELDHDAPPENHTICVKYITSFTAAFSFSLETQLTIGYGTMFPSGDCPSAIALLAIQMLLGLMLEAFITGAFVAKIAQPKNRAFSIRFTDTAVVAHMDGKPNLIFQVANTRPSPLTSVRVSAVLYQERENGKLYQTSVDFHLDGISSDECPFFIFPLTYYHSITPSSPLATLLQHENPSHFELVVFLSAMQEGTGEICQRRTSYLPSEIMLHHCFASLLTRGSKGEYQIKMENFDKTVPEFPTPLVSKSPNRTDLDIHINGQSIDNFQISETGLTE
stoichiometry N: 4

B2: human Kir7.1 E276A mutant (natural protein)
chain: MDSSNCKVIAPLLSQRYRRMVTKDGHSTLQMDGAQRGLAYLRDAWGILMDMRWRWMMLVFSASFVVHWLVFAVLWYVLAEMNGDLELDHDAPPENHTICVKYITSFTAAFSFSLETQLTIGYGTMFPSGDCPSAIALLAIQMLLGLMLEAFITGAFVAKIARPKNRAFSIRFTDTAVVAHMDGKPNLIFQVANTRPSPLTSVRVSAVLYQERENGKLYQTSVDFHLDGISSDECPFFIFPLTYYHSITPSSPLATLLQHENPSHFELVVFLSAMQAGTGEICQRRTSYLPSEIMLHHCFASLLTRGSKGEYQIKMENFDKTVPEFPTPLVSKSPNRTDLDIHINGQSIDNFQISETGLTE
stoichiometry N: 4
